# Reference: the supplement of paper PMC9112550, “Optimization of the antimicrobial peptide Bac7 by deep mutational scanning” (BMC Biology, 2022)
# System: Escherichia coli TOP10
# Assay: shrunken log2 fold change of peptide-encoding DNA abundance (4.5 h post-induction vs induction); higher = less antimicrobial activity (less host growth inhibition)
# Details: time post-induction: 4.5 h; library: site-saturation at positions 5, 18, 19, 20
# 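Note: peptides expressed intracellularly from a pBAD plasmid library in pooled LB shake-flask culture, induced with 0.3% L-arabinose, DNA abundance read by NGS, three biological replicates, DESeq2 with apeglm shrinkage.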
row,Sequence,shrunken log2 fold change
1,RRIRCRPPRLPRPRPRPMQRPRP,0.0282
2,RRIRCRPPRLPRPRPRPPLIPRP,-0.000572
3,RRIRERPPRLPRPRPRPWACPRP,0.0618
4,RRIRLRPPRLPRPRPRPLRKPRP,0.183
5,RRIRQRPPRLPRPRPRPHGWPRP,-0.0188
6,RRIRYRPPRLPRPRPRPHVTPRP,-0.147
7,RRIRGRPPRLPRPRPRPCITPRP,0.158
8,RRIRFRPPRLPRPRPRPRKHPRP,0.0878
9,RRIRTRPPRLPRPRPRPLPYPRP,-0.0545
10,RRIRPRPPRLPRPRPRPSWRPRP,-0.0524
11,RRIRPRPPRLPRPRPRPPHNPRP,0.242
12,RRIRIRPPRLPRPRPRPTFEPRP,0.168
13,RRIRERPPRLPRPRPRPLPKPRP,0.222
14,RRIRSRPPRLPRPRPRPRISPRP,0.0353
15,RRIRGRPPRLPRPRPRPVPFPRP,0.289
16,RRIRRRPPRLPRPRPRPRLKPRP,0.231
17,RRIRERPPRLPRPRPRPLGYPRP,-0.39
18,RRIRTRPPRLPRPRPRPLCLPRP,-0.433
19,RRIRQRPPRLPRPRPRPYGLPRP,-0.048
20,RRIRKRPPRLPRPRPRPGKCPRP,0.0131
21,RRIRQRPPRLPRPRPRPCRNPRP,-0.0117
22,RRIRQRPPRLPRPRPRPVDMPRP,-0.108
23,RRIRRRPPRLPRPRPRPVEQPRP,0.0679
24,RRIRIRPPRLPRPRPRPPIRPRP,-0.0314
25,RRIRARPPRLPRPRPRPPFTPRP,0.3

row,Sequence,shrunken log2 fold change
1,RRIRFRPPRLPRPRPRPENNPRP,-0.285
2,RRIRQRPPRLPRPRPRPMNAPRP,0.0115
3,RRIRERPPRLPRPRPRPLGAPRP,-0.159
4,RRIRIRPPRLPRPRPRPYGQPRP,-0.284
5,RRIRGRPPRLPRPRPRPPGMPRP,0.989
6,RRIRTRPPRLPRPRPRPQACPRP,-0.0237
7,RRIRMRPPRLPRPRPRPTRDPRP,0.314
8,RRIRVRPPRLPRPRPRPMIRPRP,-0.147
9,RRIRYRPPRLPRPRPRPSCEPRP,-0.586
10,RRIRIRPPRLPRPRPRPTCCPRP,0.111
11,RRIRERPPRLPRPRPRPDTVPRP,0.37
12,RRIRARPPRLPRPRPRPYQEPRP,0.0175
13,RRIRIRPPRLPRPRPRPIYMPRP,0.00602
14,RRIRHRPPRLPRPRPRPANFPRP,-0.0325
15,RRIRCRPPRLPRPRPRPRCLPRP,-0.32
16,RRIRTRPPRLPRPRPRPHFQPRP,-0.294
17,RRIRTRPPRLPRPRPRPYDPPRP,-0.0474
18,RRIRLRPPRLPRPRPRPDVLPRP,-0.00959
19,RRIRGRPPRLPRPRPRPMCAPRP,1.88
20,RRIRDRPPRLPRPRPRPWGKPRP,-0.194
21,RRIRHRPPRLPRPRPRPAKFPRP,-0.139
22,RRIRIRPPRLPRPRPRPSAEPRP,-0.0944
23,RRIRERPPRLPRPRPRPWCRPRP,-0.126
24,RRIRGRPPRLPRPRPRPVAWPRP,0.508
25,RRIRWRPPRLPRPRPRPNGMPRP,-0.0595

row,Sequence,shrunken log2 fold change
1,RRIRQRPPRLPRPRPRPSNLPRP,-0.11
2,RRIRRRPPRLPRPRPRPYFNPRP,-0.2
3,RRIRRRPPRLPRPRPRPDLSPRP,-0.0391
4,RRIRFRPPRLPRPRPRPTNIPRP,-0.959
5,RRIRGRPPRLPRPRPRPTGLPRP,0.885
6,RRIRCRPPRLPRPRPRPCCRPRP,-0.106
7,RRIRVRPPRLPRPRPRPILPPRP,-0.331
8,RRIRGRPPRLPRPRPRPDTPPRP,0.799
9,RRIRMRPPRLPRPRPRPDRQPRP,0.239
10,RRIRQRPPRLPRPRPRPPSSPRP,0.0251
11,RRIRDRPPRLPRPRPRPIMFPRP,0.0387
12,RRIRERPPRLPRPRPRPALQPRP,0.22
13,RRIRTRPPRLPRPRPRPAVPPRP,0.0514
14,RRIRERPPRLPRPRPRPCMMPRP,-0.058
15,RRIRKRPPRLPRPRPRPAPAPRP,1.05
16,RRIRQRPPRLPRPRPRPLQQPRP,-0.123
17,RRIRFRPPRLPRPRPRPVQDPRP,-0.209
18,RRIRCRPPRLPRPRPRPIKDPRP,-0.533
19,RRIRHRPPRLPRPRPRPAFTPRP,-0.311
20,RRIRSRPPRLPRPRPRPWFWPRP,0.326
21,RRIRVRPPRLPRPRPRPQWAPRP,-0.0201
22,RRIRNRPPRLPRPRPRPACGPRP,0.547
23,RRIRRRPPRLPRPRPRPAAIPRP,0.181
24,RRIRDRPPRLPRPRPRPDKSPRP,-0.119
25,RRIRCRPPRLPRPRPRPEPPPRP,2.06

row,Sequence,shrunken log2 fold change
1,RRIRERPPRLPRPRPRPFLTPRP,-0.506
2,RRIRRRPPRLPRPRPRPGHCPRP,0.0653
3,RRIRPRPPRLPRPRPRPCLGPRP,-0.198
4,RRIRCRPPRLPRPRPRPMYNPRP,-0.535
5,RRIRVRPPRLPRPRPRPNNLPRP,-0.534
6,RRIRQRPPRLPRPRPRPYKRPRP,-0.213
7,RRIRARPPRLPRPRPRPRNHPRP,0.0958
8,RRIRVRPPRLPRPRPRPPMMPRP,-0.0474
9,RRIRDRPPRLPRPRPRPEYGPRP,0.305
10,RRIRLRPPRLPRPRPRPDRTPRP,0.0027
11,RRIRSRPPRLPRPRPRPGQYPRP,-0.113
12,RRIRPRPPRLPRPRPRPDFFPRP,-0.0853
13,RRIRHRPPRLPRPRPRPIHGPRP,-0.0135
14,RRIRPRPPRLPRPRPRPTGHPRP,0.0828
15,RRIRRRPPRLPRPRPRPEPDPRP,0.879
16,RRIRSRPPRLPRPRPRPMSRPRP,0.0278
17,RRIRRRPPRLPRPRPRPDPTPRP,0.77
18,RRIRARPPRLPRPRPRPIEAPRP,0.213
19,RRIRGRPPRLPRPRPRPMRWPRP,0.844
20,RRIRNRPPRLPRPRPRPIECPRP,0.0138
21,RRIRSRPPRLPRPRPRPVLWPRP,0.657
22,RRIRPRPPRLPRPRPRPGSGPRP,1.05
23,RRIRARPPRLPRPRPRPNNCPRP,-0.466
24,RRIRLRPPRLPRPRPRPECYPRP,-0.235
25,RRIRARPPRLPRPRPRPSVKPRP,0.133

row,Sequence,shrunken log2 fold change
1,RRIRERPPRLPRPRPRPYSMPRP,-1.48
2,RRIRHRPPRLPRPRPRPISWPRP,-0.245
3,RRIRMRPPRLPRPRPRPPKHPRP,0.829
4,RRIRFRPPRLPRPRPRPDWQPRP,0.0911
5,RRIRERPPRLPRPRPRPEQYPRP,-0.14
6,RRIRKRPPRLPRPRPRPGDIPRP,-0.227
7,RRIRCRPPRLPRPRPRPKKDPRP,-0.000499
8,RRIRWRPPRLPRPRPRPPQCPRP,0.292
9,RRIRARPPRLPRPRPRPEHWPRP,0.261
10,RRIRRRPPRLPRPRPRPMRFPRP,1.1
11,RRIRPRPPRLPRPRPRPSNSPRP,-0.794
12,RRIRYRPPRLPRPRPRPFSNPRP,0.0549
13,RRIRNRPPRLPRPRPRPMKQPRP,0.0238
14,RRIRFRPPRLPRPRPRPDHDPRP,-0.217
15,RRIRLRPPRLPRPRPRPAHRPRP,0.278
16,RRIRERPPRLPRPRPRPCREPRP,-0.129
17,RRIRVRPPRLPRPRPRPTWKPRP,-0.0442
18,RRIRLRPPRLPRPRPRPRAWPRP,0.41
19,RRIRDRPPRLPRPRPRPLHCPRP,-0.145
20,RRIRKRPPRLPRPRPRPNCPPRP,0.0785
21,RRIRIRPPRLPRPRPRPNNGPRP,-0.589
22,RRIRNRPPRLPRPRPRPFHFPRP,-0.359
23,RRIRMRPPRLPRPRPRPPLDPRP,1.03
24,RRIRIRPPRLPRPRPRPNVTPRP,-0.149
25,RRIRKRPPRLPRPRPRPSNTPRP,-0.231

row,Sequence,shrunken log2 fold change
1,RRIRARPPRLPRPRPRPGVWPRP,1.55
2,RRIRSRPPRLPRPRPRPHKAPRP,-0.1
3,RRIRLRPPRLPRPRPRPYWTPRP,-0.435
4,RRIRWRPPRLPRPRPRPTRAPRP,0.909
5,RRIRIRPPRLPRPRPRPVLGPRP,0.0875
6,RRIRIRPPRLPRPRPRPFDTPRP,0.0514
7,RRIRIRPPRLPRPRPRPYVMPRP,-0.274
8,RRIRHRPPRLPRPRPRPMGTPRP,-0.0597
9,RRIRNRPPRLPRPRPRPAMGPRP,0.288
10,RRIRWRPPRLPRPRPRPVPFPRP,0.122
11,RRIRQRPPRLPRPRPRPFRKPRP,-0.101
12,RRIRFRPPRLPRPRPRPKERPRP,0.193
13,RRIRERPPRLPRPRPRPQWIPRP,-0.0767
14,RRIRQRPPRLPRPRPRPNIEPRP,-0.0328
15,RRIRERPPRLPRPRPRPSHQPRP,-0.19
16,RRIRARPPRLPRPRPRPDCTPRP,0.27
17,RRIRYRPPRLPRPRPRPVPSPRP,-0.404
18,RRIRYRPPRLPRPRPRPQCDPRP,-0.529
19,RRIRPRPPRLPRPRPRPLKFPRP,-0.368
20,RRIRCRPPRLPRPRPRPTKNPRP,0.142
21,RRIRFRPPRLPRPRPRPWKIPRP,-0.0171
22,RRIRRRPPRLPRPRPRPTIPPRP,-0.0701
23,RRIRYRPPRLPRPRPRPSMLPRP,-1.07
24,RRIRARPPRLPRPRPRPSCCPRP,0.207
25,RRIRVRPPRLPRPRPRPRGDPRP,0.754
